Source: paper PMC7160140, “Allosteric regulation accompanied by oligomeric state changes of Trypanosoma brucei GMP reductase through cystathionine-β-synthase domain” (Nature Communications, 2020)
Where two headings read alike, the source gives them in different places. One block for each molecule: values may come before it.

Legend:
[1] = biological target: T1, TbGMPR (guanosine 5′-monophosphate reductase) (Trypanosoma brucei, UniProt Q57ZS7); test: co-crystal structure at […] Å; activation of purified enzyme (EC50); format: biochemical; set-up: gene Tb05.1P6.110; wild-type, C-terminal histidine-tag
T1 sequence (Q57ZS7 1-491): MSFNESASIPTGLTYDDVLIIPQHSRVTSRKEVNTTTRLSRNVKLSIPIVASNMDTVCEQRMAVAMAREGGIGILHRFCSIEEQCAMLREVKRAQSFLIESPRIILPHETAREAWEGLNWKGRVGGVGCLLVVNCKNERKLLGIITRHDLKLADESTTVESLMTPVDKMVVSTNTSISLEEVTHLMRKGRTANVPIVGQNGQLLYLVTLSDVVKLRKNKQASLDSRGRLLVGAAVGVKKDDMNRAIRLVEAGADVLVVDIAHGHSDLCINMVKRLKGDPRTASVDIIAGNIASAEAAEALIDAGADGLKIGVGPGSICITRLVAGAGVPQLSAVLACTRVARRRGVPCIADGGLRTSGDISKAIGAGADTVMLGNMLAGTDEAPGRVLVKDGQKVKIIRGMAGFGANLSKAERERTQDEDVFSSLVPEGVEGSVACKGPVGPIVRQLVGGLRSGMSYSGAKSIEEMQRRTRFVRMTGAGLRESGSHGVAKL

[2] = biological target: T2, TbGMPR (guanosine 5′-monophosphate reductase) (Trypanosoma brucei, UniProt Q57ZS7, W115R); test: tryptophan fluorescence quenching; format: binding
T2 construct: gene Tb05.1P6.110; full-length, C-terminal histidine-tag

[3] = biological target: Trypanosoma brucei guanosine 5'-monophosphate reductase, wild type (Trypanosoma brucei (ILTat 1.4)); test: SEC-SAXS; no ligand; 4 or 12 mg/mL protein in 50 mM Tris-HCl pH 7.8, 0.5 M KCl, 3 mM EDTA, 1 mM DTT; Shodex KW403-4F; 20 °C; mass from volume of correlation, fractions of tetramer and octamers fitted by OLIGOMER
[4] = biological target: Trypanosoma brucei guanosine 5'-monophosphate reductase, wild type (Trypanosoma brucei (ILTat 1.4)); test: SEC-SAXS; with 10 mM ATP; 4 or 12 mg/mL protein in 50 mM Tris-HCl pH 7.8, 0.5 M KCl, 3 mM EDTA, 1 mM DTT; 20 °C; fractions fitted by OLIGOMER; octamer to tetramers
[5] = biological target: Trypanosoma brucei guanosine 5'-monophosphate reductase, wild type (Trypanosoma brucei (ILTat 1.4)); test: SEC-SAXS; with 10 mM GMP; 4 or 12 mg/mL protein in 50 mM Tris-HCl pH 7.8, 0.5 M KCl, 3 mM EDTA, 1 mM DTT; 20 °C; fractions fitted by OLIGOMER
[6] = biological target: Trypanosoma brucei guanosine 5'-monophosphate reductase, wild type (Trypanosoma brucei (ILTat 1.4)); test: SEC-SAXS; with 10 mM GTP; 4 or 12 mg/mL protein in 50 mM Tris-HCl pH 7.8, 0.5 M KCl, 3 mM EDTA, 1 mM DTT; 20 °C; fractions fitted by OLIGOMER
[7] = biological target: Trypanosoma brucei guanosine 5'-monophosphate reductase, wild type (Trypanosoma brucei (ILTat 1.4)); test: crystal structure; wild-type TbGMPR co-crystallised with up to 1 mM GTP (TbGMPR/GTP), 2.50 Å; 20 °C
[8] = biological target: TbGMPR∆CBS (Trypanosoma brucei GMP reductase lacking the CBS domain) (Trypanosoma brucei (ILTat 1.4)); test: SEC-SAXS
[9] = biological target: TbGMPR C318A (inactive mutant of Trypanosoma brucei GMP reductase) (Trypanosoma brucei (ILTat 1.4)); test: crystal structure; TbGMPR C318A without ligand (C318A apo), 2.80 Å; sitting drop, 4 °C; oligomer from crystal packing by PISA
[10] = biological target: TbGMPR C318A (inactive mutant of Trypanosoma brucei GMP reductase) (Trypanosoma brucei (ILTat 1.4)); test: crystal structure; TbGMPR C318A co-crystallised with up to 3 mM GMP (C318A/GMP), 1.90 Å; 4 °C
[11] = biological target: T2, TbGMPR (guanosine 5′-monophosphate reductase); test: tryptophan fluorescence quenching (no Kd obtained); format: binding
[12] = biological target: T1, TbGMPR (guanosine 5′-monophosphate reductase); test: biochemical; set-up: gene Tb05.1P6.110
[13] = substrate: Nc1nc2c(ncn2[C@@H]2O[C@H](COP(=O)(O)O)[C@@H](O)[C@H]2O)c(=O)[nH]1; test: purified protein; format: biochemical, Trypanosoma brucei; details: NADPH active site; positive cooperativity via CBS domain

Molecule: Nc1nc2c(ncn2[C@@H]2O[C@H](COP(=O)(O)OP(=O)(O)OP(=O)(O)O)[C@@H](O)[C@H]2O)c(=O)[nH]1 [GTP]
EC50 [1]: 4.8 µM
Kd ([2]; read-out: Kd): 6.75 ± 0.58 µM

Octamer, relaxed (%) [3]: 53.2%
Octamer, twisted (%) [3]: 46.8%
Tetramer (%) [3]: 0%
stoichiometry N [3]: 8
Octamer, relaxed (%) [4]: 28%
Octamer, twisted (%) [4]: 11.2%
Tetramer (%) [4]: 60.8%
Octamer, relaxed (%) [5]: 0%
Octamer, twisted (%) [5]: 97.8%
Tetramer (%) [5]: 2.2%
Octamer, relaxed (%) [6]: 0%
Octamer, twisted (%) [6]: 100%
Tetramer (%) [6]: 0%
stoichiometry N [7]: 8
Molecule: Trypanosoma brucei guanosine 5'-monophosphate reductase, wild type (enzyme)

Molecule: TbGMPR∆CBS (Trypanosoma brucei GMP reductase lacking the CBS domain) (enzyme)
stoichiometry N [8]: 4

Molecule: TbGMPR C318A (inactive mutant of Trypanosoma brucei GMP reductase) (enzyme)
stoichiometry N [9]: 8
stoichiometry N [10]: 8

Molecule: Nc1nc2c(ncn2[C@@H]2O[C@H](COP(=O)(O)O)[C@@H](O)[C@H]2O)c(=O)[nH]1 [GMP]
tryptophan fluorescence quenching (no Kd obtained) [11]: blue-shifting of the emission spectra of the protein with either GTP or GMP, but not with ATP

Molecule: Nc1ncnc2c1ncn2[C@@H]1O[C@H](COP(=O)(O)OP(=O)(O)OP(=O)(O)O)[C@@H](O)[C@H]1O [ATP]
EC50 [12]: 160 µM
Kd [2]: 194 ± 45 µM

B1: TbGMPR (guanosine 5′-monophosphate reductase) (Trypanosoma brucei brucei TREU927) (protein)
chain: MSFNESASIPTGLTYDDVLIIPQHSRVTSRKEVNTTTRLSRNVKLSIPIVASNMDTVCEQRMAVAMAREGGIGILHRFCSIEEQCAMLREVKRAQSFLIESPRIILPHETAREAWEGLNWKGRVGGVGCLLVVNCKNERKLLGIITRHDLKLADESTTVESLMTPVDKMVVSTNTSISLEEVTHLMRKGRTANVPIVGQNGQLLYLVTLSDVVKLRKNKQASLDSRGRLLVGAAVGVKKDDMNRAIRLVEAGADVLVVDIAHGHSDLCINMVKRLKGDPRTASVDIIAGNIASAEAAEALIDAGADGLKIGVGPGSICITRLVAGAGVPQLSAVLACTRVARRRGVPCIADGGLRTSGDISKAIGAGADTVMLGNMLAGTDEAPGRVLVKDGQKVKIIRGMAGFGANLSKAERERTQDEDVFSSLVPEGVEGSVACKGPVGPIVRQLVGGLRSGMSYSGAKSIEEMQRRTRFVRMTGAGLRESGSHGVAKL
notes: wild-type, C-terminal histidine-tag
K0.5 [13]: 184 ± 3 µM
kcat [13]: 0.2783 ± 0.0025 s⁻¹
kcat/Km [13]: 1520 M⁻¹ s⁻¹
